Source: publication PMC13193388, “Dimerization‐dependent NOTCH receptor transactivation unveils a class of highly selective NOTCH signalling inhibitors” (The Febs Journal, 2025)

Molecular target: T1, purified recombinant HIS epitope-tagged NOTCH3 extracellular domain (human, UniProt Q9UM47 40-1643, glycosylated)
T1 construct: NOTCH3, human, complete extracellular domain; written as one chain so that the self-association rows stand for chain with chain; also called N3 ECD; NOTCH3-ECD protein; source: PEC.3.30 (modified Per.E2A) cells, purified from supernatant (HisTrap HP, Superdex 200); not shown: HIS, C-terminal, kept
Assay: SPR; Biacore T200; NOTCH3-ECD immobilized on NTA Series S chip by nickel-NTA capture-coupling (about 3500 RU); peptides flowed at 30 μL/min; 50 mM HEPES, 150 mM NaCl, 25 °C; steady-state affinity model
Conditions: both partners purified

T1 sequence (Q9UM47 40-1643): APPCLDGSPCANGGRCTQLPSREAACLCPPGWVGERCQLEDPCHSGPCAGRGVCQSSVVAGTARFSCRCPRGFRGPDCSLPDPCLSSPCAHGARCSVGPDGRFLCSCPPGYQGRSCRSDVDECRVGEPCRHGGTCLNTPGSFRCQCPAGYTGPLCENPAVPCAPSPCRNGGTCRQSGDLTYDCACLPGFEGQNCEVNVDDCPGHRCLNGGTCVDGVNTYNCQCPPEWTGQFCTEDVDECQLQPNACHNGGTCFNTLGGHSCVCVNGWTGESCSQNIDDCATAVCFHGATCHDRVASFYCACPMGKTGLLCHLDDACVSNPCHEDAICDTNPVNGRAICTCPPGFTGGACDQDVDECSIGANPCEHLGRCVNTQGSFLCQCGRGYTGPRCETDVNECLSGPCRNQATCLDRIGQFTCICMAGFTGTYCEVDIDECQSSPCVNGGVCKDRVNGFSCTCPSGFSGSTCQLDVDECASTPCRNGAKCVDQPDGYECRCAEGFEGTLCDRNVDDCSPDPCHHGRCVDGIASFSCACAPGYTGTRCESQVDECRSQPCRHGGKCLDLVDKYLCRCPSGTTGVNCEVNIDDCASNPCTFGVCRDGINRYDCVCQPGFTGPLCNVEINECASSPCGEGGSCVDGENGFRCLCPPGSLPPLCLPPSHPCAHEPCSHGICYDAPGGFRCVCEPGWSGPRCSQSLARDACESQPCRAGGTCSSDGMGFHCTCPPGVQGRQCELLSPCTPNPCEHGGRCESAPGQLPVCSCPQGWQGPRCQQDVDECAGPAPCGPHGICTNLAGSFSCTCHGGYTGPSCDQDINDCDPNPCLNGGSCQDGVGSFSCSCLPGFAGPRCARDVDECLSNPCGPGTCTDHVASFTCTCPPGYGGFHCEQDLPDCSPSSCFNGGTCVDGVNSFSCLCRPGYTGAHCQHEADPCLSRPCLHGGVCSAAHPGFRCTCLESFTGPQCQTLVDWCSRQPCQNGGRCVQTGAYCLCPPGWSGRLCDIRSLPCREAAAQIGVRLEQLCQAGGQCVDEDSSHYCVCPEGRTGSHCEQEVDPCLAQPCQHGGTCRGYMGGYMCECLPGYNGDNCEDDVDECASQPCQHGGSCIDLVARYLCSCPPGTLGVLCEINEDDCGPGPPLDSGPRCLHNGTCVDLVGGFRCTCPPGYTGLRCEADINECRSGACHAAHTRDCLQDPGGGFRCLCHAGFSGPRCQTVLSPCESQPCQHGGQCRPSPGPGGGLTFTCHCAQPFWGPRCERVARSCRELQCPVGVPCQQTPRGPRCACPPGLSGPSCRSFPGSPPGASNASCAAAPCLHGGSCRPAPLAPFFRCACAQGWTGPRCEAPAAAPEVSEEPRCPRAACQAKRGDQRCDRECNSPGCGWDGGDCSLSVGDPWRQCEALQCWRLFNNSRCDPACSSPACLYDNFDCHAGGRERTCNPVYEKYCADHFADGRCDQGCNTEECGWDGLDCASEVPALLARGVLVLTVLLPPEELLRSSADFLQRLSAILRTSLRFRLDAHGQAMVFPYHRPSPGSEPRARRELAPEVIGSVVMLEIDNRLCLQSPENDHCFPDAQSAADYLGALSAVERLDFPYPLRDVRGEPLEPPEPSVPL

binding result: binds
B1: N34 peptide (peptide)
peptide: EKYCADHFADGR
notes: NOTCH3, human, peptide centred on the helix encompassing the core dimerization motif of the NRR; also called N3 peptide
